Measurements published in the supplement of paper PMC10724198.
± gives the standard deviation of the averaged measurements.

Tested on: Saccharomyces cerevisiae
Assay: protein stability index of tFT-peptide fusion (C-terminal peptide) (PSI (0-1 scale)); higher = more stable (slower turnover)
Conditions: temperature: 30 C
Protocol: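 MPS profiling in S. cerevisiae of the yeast C-terminome library: the last 12 aa of each annotated ORF are fused to the C-terminus of a sfGFP-mCherry timer, after a GGGS linker. Cells are FACS-sorted into 8 mCherry/sfGFP bins and deep-sequenced. PSI runs from 0 (unstable) to 1 (stable); wild type and das1Δ backgrounds, two technical replicates each.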

[1] = genetic background: das1 deletion

Sequence | protein stability index [1] | protein stability index (genetic background: wild type)
VHKLGWSLSFDA [POR1 C-terminal 12 aa] | 0.706 ± 0.022 | 0.6642 ± 0.0033
QIAFAWQNKPRL [PXP1 C-terminal 12 aa] | 0.815 ± 0.029 | 0.793 ± 0.045
GLLFDKKKKARK [NOP19 C-terminal 12 aa] | 0.687 ± 0.012 | 0.691 ± 0.043
TATAPRLFDKLK [QCR6 C-terminal 12 aa] | 0.7007 ± 0.007 | 0.662 ± 0.026
SGNNLGICFYKE [NUP170 C-terminal 12 aa] | 0.6733 ± 0.005 | 0.677 ± 0.019
KYNSQKRATTPA [COQ4 C-terminal 12 aa] | 0.712 ± 0.027 | 0.6698 ± 0.0039
MNSAMNVQPTGF [CHC1 C-terminal 12 aa] | 0.6951 ± 0.0016 | 0.662 ± 0.033
KQIDVFNGPKRV [MIG2 C-terminal 12 aa] | 0.713 ± 0.0091 | 0.7313 ± 0.0019
TNGLINQFKEWM [PGI1 C-terminal 12 aa] | 0.673 ± 0.015 | 0.736 ± 0.082
KGHVHSPRHNND [YOR379C C-terminal 12 aa] | 0.7103 ± 0.0065 | 0.713 ± 0.035
EYEPFVMYIINL [VMA5 C-terminal 12 aa] | 0.6058 ± 0.001 | 0.545 ± 0.0069
GVSFHVQVTMPQ [TRS33 C-terminal 12 aa] | 0.711 ± 0.023 | 0.704 ± 0.049
STITSMNPDTTK [VHS2 C-terminal 12 aa] | 0.711 ± 0.031 | 0.669 ± 0.04
TVQSKLGDHGFN [PEP7 C-terminal 12 aa] | 0.679 ± 0.015 | 0.707 ± 0.048
EVPVNTADRGRL [PMU1 C-terminal 12 aa] | 0.701 ± 0.021 | 0.76 ± 0.071
IQELVNTIRELQ [YPL077C C-terminal 12 aa] | 0.69 ± 0.018 | 0.642 ± 0.0078
EWSSGIPHPEMI [ARA2 C-terminal 12 aa] | 0.7305 ± 0.0044 | 0.667 ± 0.018
RRAAESGKLKME [YNL108C C-terminal 12 aa] | 0.693 ± 0.029 | 0.698 ± 0.067
NHFHYDCVYRYC [YOR333C C-terminal 12 aa] | 0.6939 ± 0.0038 | 0.404 ± 0.03
GEYYNLIVPSLD [YGK3 C-terminal 12 aa] | 0.7209 ± 0.0012 | 0.698 ± 0.014
KAPKSPEVIEID [UFD1 C-terminal 12 aa] | 0.6978 ± 0.0035 | 0.684 ± 0.027

Sequence | protein stability index [1] | protein stability index (genetic background: wild type)
CGVSWKSGVVKL [PXP2 C-terminal 12 aa] | 0.7093 ± 0.0022 | 0.716 ± 0.031
HNDNSGTVLGTA [RBD2 C-terminal 12 aa] | 0.7 ± 0.017 | 0.728 ± 0.032
FLWEMFELKLYL [YMR119W-A C-terminal 12 aa] | 0.7071 ± 0.0016 | 0.71 ± 0.036
KPDVERVYKENT [FAA4 C-terminal 12 aa] | 0.701 ± 0.025 | 0.665 ± 0.011
NENKKANGNNCC [YPT31 C-terminal 12 aa] | 0.705 ± 0.017 | 0.652 ± 0.036
IIRSEKKKKEEQ [YBR292C C-terminal 12 aa] | 0.748 ± 0.041 | 0.659 ± 0.039
ILIRKKLKAENI [OPY1 C-terminal 12 aa] | 0.677 ± 0.021 | 0.646 ± 0.053
GKSSKKKNRSRK [SSH4 C-terminal 12 aa] | 0.726 ± 0.052 | 0.692 ± 0.018
LMGAALAAVIFL [FIT1 C-terminal 12 aa] | 0.672 ± 0.018 | 0.668 ± 0.026
QNLLSAYRMNHK [AVO1 C-terminal 12 aa] | 0.70387 ± 0.00067 | 0.64 ± 0.021
HCGARLTVIPKK [YER137C C-terminal 12 aa] | 0.693 ± 0.016 | 0.688 ± 0.028
KDNNISSYGSII [YPL162C C-terminal 12 aa] | 0.693 ± 0.037 | 0.668 ± 0.011
SRIIIKAARGII [YOR082C C-terminal 12 aa] | 0.704 ± 0.042 | 0.678 ± 0.019
ILHERNIPLEKI [TPT1 C-terminal 12 aa] | 0.709 ± 0.021 | 0.701 ± 0.048
FSAGNYKLPPGI [KTR3 C-terminal 12 aa] | 0.68 ± 0.011 | 0.7009 ± 0.0015
FDYDFLFGNDFA [OAF1 C-terminal 12 aa] | 0.791 ± 0.006 | 0.75 ± 0.052
KRSLTLPVGMKI [AIM44 C-terminal 12 aa] | 0.683 ± 0.026 | 0.658 ± 0.02
DPFDTNLSIKLS [YMR075C-A C-terminal 12 aa] | 0.696 ± 0.026 | 0.6827 ± 0.0066
YHKLVDEVFQHL [MPA43 C-terminal 12 aa] | 0.71092 ± 0.00027 | 0.688 ± 0.016
LQFILPSMNLAN [GPB1 C-terminal 12 aa] | 0.692 ± 0.0087 | 0.656 ± 0.015
